Experimental data: patent publication US20110281938, “APTAMERS TO TISSUE FACTOR PATHWAY INHIBITOR AND THEIR USE AS BLEEDING DISORDER THERAPEUTICS” (Baxter Healthcare S.A., published 2011)

Tests used:
[1] = molecular target: T1, TFPI (tissue factor pathway inhibitor, full-length) (Homo sapiens, UniProt P10646 SEQ:1-276); test: competition; dot-blot vs radiolabeled ARC17480, 10 nM TFPI; details: tags: American Diagnostica 4500PC/4900PC, E. coli expressed
Method: Each molecule was evaluated for binding to tissue factor pathway inhibitor (TFPI) in a binding-competition assay. For these experiments, 10 nM human TFPI (American Diagnostica, Stamford, Conn., catalog #4500PC) was incubated with trace amounts of radiolabeled ARC17480 and 5000 nM, 1666.67 nM, 555.56 nM, 185.19 nM, 61.73 nM, 20.58 nM, 6.86 nM, 2.29 nM, 0.76 nM or 0.25 nM of unlabeled competitor aptamer. ARC17480 was included as a competitor in every experiment as a control. For each molecule, the percentage of radiolabeled ARC17480 bound at each competitor aptamer concentration was used for analysis. The percentage of radiolabeled ARC17480 bound was plotted as a function of aptamer concentration and fit to the equation y=(max/(1+x/IC₅₀))+int, where y=the percentage of radiolabeled ARC17480 bound, x=the concentration of aptamer, max=the maximum radiolabeled ARC17480 bound, and int=the y-intercept, to generate an IC₅₀ value for binding-competition. The IC₅₀ of each aptamer was compared to the IC₅₀ of ARC17480 that was evaluated in the same experiment. A substitution was considered tolerated in the binding-competition assay if the IC₅₀ of that molecule was not more than 5-fold greater than that of ARC17480 evaluated in the same experiment. Tolerated substitutions are indicated in Table 37 as meeting the assay criteria (“yes”) or not meeting the assay criteria (“no”).

[2] = molecular target: T1, TFPI (tissue factor pathway inhibitor, …); test: competition; dot-blot, 10 nM TFPI; details: tags: American Diagnostica 4500PC/4900PC, E. coli expressed
Method: The substituted ARC17480 molecules were assayed for binding and function. The assays used for this evaluation were the calibrated automated thrombogram (CAT) assay, a dot-blot binding-competition assay and a FXa activity assay. The results of these assays are summarized in Table 40 and depicted in FIG. 147. A mutation was considered tolerated for activity if it met the criteria of at least two of the three assays that were carried out. Mutations that are tolerated (“yes”) and not tolerated (“no”) are identified in Table 40. The experimental details and the criteria used for each assay are described in the following paragraphs. The molecules described in this example were first tested in the CAT assay and the dot-blot binding-competition assay. In most cases, molecules were only tested in the FXa assay if there was a discrepancy between the results in the CAT assay and the dot-blot binding-competition assay.
Each molecule was evaluated for binding to tissue factor pathway inhibitor (TFPI) in a binding-competition assay. […] The IC₅₀ of each aptamer was compared to the IC₅₀ of ARC17480 that was evaluated in the same experiment. A mutation was considered tolerated in the binding-competition assay if the IC₅₀ of that molecule was not more than 5-fold greater than that of ARC17480 evaluated in the same experiment. […]

T1 sequence (P10646 29-304): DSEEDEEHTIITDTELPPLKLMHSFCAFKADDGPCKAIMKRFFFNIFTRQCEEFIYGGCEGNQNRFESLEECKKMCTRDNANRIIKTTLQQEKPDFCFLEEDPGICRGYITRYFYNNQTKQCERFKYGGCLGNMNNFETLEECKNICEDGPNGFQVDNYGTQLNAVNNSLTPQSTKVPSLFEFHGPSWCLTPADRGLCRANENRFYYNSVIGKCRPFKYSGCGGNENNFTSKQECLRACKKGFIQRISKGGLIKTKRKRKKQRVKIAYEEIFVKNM

GGAAUAUACUUGGCUCGUUAGGUGCGUAUAUA (XNA, 2'-OMe except dC9, dC16, dC25; 2'-OMe C14; 3' idT) [ARC18539]
binding signal [1]: ≤ 5 fold IC50 vs ARC17480

AGAAUAUACUUGGCUCGUUAGGUGCGUAUAUA (XNA, 2'-OMe except dC9, dC14, dC16, dC25; 3' idT) [ARC34856]
binding signal [2]: ≤ 5 fold IC50 vs ARC17480
